Columns and labels:
[1] = substrate: OC[C@H]1O[C@@H](O[C@@H]2[C@@H](O)[C@H](O[C@H]3[C@H](O)[C@@H](CO)OC(O)[C@@H]3O)O[C@H](CO)[C@H]2O)[C@H](O)[C@@H](O)[C@@H]1O; assay: purified protein, by the assay type; format: biochemical, Blautia producta ATCC 27340; details: other: PAHBAH assay, 100 mM HEPES pH 6.5, 37 °C
Procedure: (§2) 150 μl of a freshly prepared 8:2 mixture of reagent A (50 mM sodium sulfite, 0.3 M 4-hydroxybenzhydrazide and 0.6 M HCl) and reagent B (50 mM trisodium citrate, 10 mM CaCl2, 0.5 M NaOH) were added to 50 μl sample. The reaction cocktail was boiled for 10 min at 100 °C. After the reaction was cooled down, the absorbance was recorded at 410 nm using the SpectraMax i3x multi-mode microplate reader. A calibration curve with different concentrations of glucose (0, 2, 4, 8, 16, 40, 80, 100, 200, 300, and 500 μM) was employed for each experiment to calculate the released amount of glucose (reducing end equivalents). The same samples were also used for control measurement, and the control value was subtracted from test reading prior to calculate kinetics parameters. In all cases, the Km, Vmax, and kcat were analyzed on GraphPad Prism. Three independent replicates were used for each test. TLC analyses were used for understanding the enzymatic degradation profiles of various oligosaccharides.

[2] = substrate: OC[C@H]1O[C@@H](O[C@H]2[C@H](O)[C@@H](O)[C@H](O[C@H]3[C@H](O)[C@@H](CO)OC(O)[C@@H]3O)O[C@@H]2CO)[C@H](O)[C@@H](O)[C@@H]1O; assay: purified protein, by the assay type; format: biochemical, Blautia producta ATCC 27340; details: other: PAHBAH assay, 100 mM HEPES pH 6.5, 37 °C
Procedure: as §2

[3] = substrate: OC[C@H]1O[C@@H](O[C@H]2[C@H](O)[C@@H](O)[C@H](O[C@H]3[C@H](O)[C@@H](O)[C@H](O[C@H]4[C@H](O)[C@@H](CO)OC(O)[C@@H]4O)O[C@@H]3CO)O[C@@H]2CO)[C@H](O)[C@@H](O)[C@@H]1O; assay: purified protein, by the assay type; format: biochemical, Blautia producta ATCC 27340; details: other: PAHBAH assay, 100 mM HEPES pH 6.5, 37 °C
Procedure: as §2

[4] = substrate: OC[C@H]1O[C@@H](O[C@H]2[C@H](O)[C@@H](O)[C@H](O[C@H]3[C@H](O)[C@@H](CO)OC(O)[C@@H]3O)O[C@@H]2CO)[C@H](O)[C@@H](O)[C@@H]1O; assay: Phosphorolysis kinetics of BpGH94MLG (PAHBAH assay); format: biochemical, Blautia producta ATCC 27340; details: other: phosphorolytic reaction, pH 6.5, 37.0 °C
Procedure: (§1) TLC was used for analyzing enzymatic actions. […] Kinetics parameters for BpGH94MLG were determined with G4G3G, G4G4G3G and cellotriose, following a p-hydroxybenzoic acid hydrazide (PAHBAH) reducing sugar assay ([69]).

[5] = substrate: OC[C@H]1O[C@@H](O[C@H]2[C@H](O)[C@@H](O)[C@H](O[C@H]3[C@H](O)[C@@H](O)C(O)O[C@@H]3CO)O[C@@H]2CO)[C@H](O)[C@@H](O)[C@@H]1O; assay: as above; format: biochemical, Blautia producta ATCC 27340; details: other: phosphorolytic reaction, pH 6.5, 37.0 °C
Procedure: as §1

[6] = substrate: OC[C@H]1O[C@@H](O[C@H]2[C@H](O)[C@@H](O)[C@H](O[C@H]3[C@H](O)[C@@H](O)[C@H](O[C@H]4[C@H](O)[C@@H](CO)OC(O)[C@@H]4O)O[C@@H]3CO)O[C@@H]2CO)[C@H](O)[C@@H](O)[C@@H]1O; assay: as above; format: biochemical, Blautia producta ATCC 27340; details: other: phosphorolytic reaction, pH 6.5, 37.0 °C
Procedure: as §1

[7] = substrate: O=C[C@H](O)[C@@H](O)[C@H](O[C@@H]1O[C@H](CO)[C@@H](O)[C@H](O)[C@H]1O)[C@H](O)CO; assay: purified protein, by the assay type; details: other: PAHBAH assay, 100 mM HEPES pH 6.5, 37 °C
Procedure: as §2

[8] = substrate: OC[C@H]1O[C@@H](O[C@@H]2[C@@H](O)[C@H](O[C@H]3[C@H](O)[C@@H](CO)OC(O)[C@@H]3O)O[C@H](CO)[C@H]2O)[C@H](O)[C@@H](O)[C@@H]1O; assay: purified protein, by the assay type; details: other: PAHBAH assay, 100 mM HEPES pH 6.5, 37 °C
Procedure: as §2

[9] = substrate: OC[C@H]1O[C@@H](O[C@H]2[C@H](O)[C@@H](CO)OC(O)[C@@H]2O)[C@H](O)[C@@H](O)[C@@H]1O; assay: purified protein, by the assay type; details: other: PAHBAH assay, 100 mM HEPES pH 6.5, 37 °C
Procedure: as §2

[10] = substrate: OC[C@H]1O[C@@H](O[C@H]2[C@H](O)[C@@H](O)[C@H](O[C@H]3[C@H](O)[C@@H](CO)OC(O)[C@@H]3O)O[C@@H]2CO)[C@H](O)[C@@H](O)[C@@H]1O; assay: purified protein, by the assay type; details: other: PAHBAH assay, 100 mM HEPES pH 6.5, 37 °C
Procedure: as §2

[11] = substrate: OC[C@H]1O[C@@H](O[C@H]2[C@H](O)[C@@H](O)[C@H](O[C@H]3[C@H](O)[C@@H](O)C(O)O[C@@H]3CO)O[C@@H]2CO)[C@H](O)[C@@H](O)[C@@H]1O; assay: purified protein, by the assay type; details: other: PAHBAH assay, 100 mM HEPES pH 6.5, 37 °C
Procedure: as §2

[12] = substrate: OC[C@H]1O[C@@H](O[C@H]2[C@H](O)[C@@H](O)[C@H](O[C@H]3[C@H](O)[C@@H](O)[C@H](O[C@H]4[C@H](O)[C@@H](CO)OC(O)[C@@H]4O)O[C@@H]3CO)O[C@@H]2CO)[C@H](O)[C@@H](O)[C@@H]1O; assay: purified protein, by the assay type; details: other: PAHBAH assay, 100 mM HEPES pH 6.5, 37 °C
Procedure: as §2

[13] = substrate: OC[C@H]1O[C@@H](O[C@H]2[C@H](O)[C@@H](O)[C@H](O[C@H]3[C@H](O)[C@@H](O)[C@H](O[C@H]4[C@H](O)[C@@H](O)C(O)O[C@@H]4CO)O[C@@H]3CO)O[C@@H]2CO)[C@H](O)[C@@H](O)[C@@H]1O; assay: purified protein, by the assay type; details: other: PAHBAH assay, 100 mM HEPES pH 6.5, 37 °C
Procedure: as §2

B1: BpGH3-AR8MLG (Blautia producta ATCC 27340 = DSM 2950) (protein)
chain: MKLKNKTFTGTTSNEVTARETENRKLARLAAAEGFVLLKNQDHILPLKKGIKLGLYGAGAVKTIKGGTGSGDVNERECVNICQGLENAGYEITSSAWLEAYASLYEETRLKWRDEILGKLEAYDNNFFEAYSTTPFFMPCGNPVDVDKASDDGADTAIYVLSRIAGENADRHDTEGDYYISAEEKALIAQLSKAYDSLVLVINTGGLVDLAFVQEFDNIKAVLQFVQAGQEGGSAFADVVSGKVTPSGKLADTWAFDYKDYPNSETFSFKNGDVNTEKYQEGIYVGYRYFDTFDVPVLYPFGFGLSYTDFMICTEEIKTVNTESGKPEIAVTVKVTNTGDTYCGKEVVQIYVSCPQGKLAKEYRRLAGFAKTEELKPGESCRITITFPVYQLASFHEENAAWVLEEGTYGVWTGNSIQGAKLAGSLCVDKDAILVQCEHICPVKEELTELTPDSSRMKEKEAAWLEKAAGLPSVHIDAEKITKETVVYTELPERFTGRAGEIVESLSVEQLIQMSAGDPGKGQDAVLGSAGITVPGAAAETSSAASGEPWNLPSIALADGPAGLRLNQKYQVVDGEIVRENFMKSIEKGFFAEPSPEVGTAYYQFCTAIPVGTLLAQTWNAELVKEVGEMIGKEMELFQVTLWLAPGMNIHRNPLCGRNFEYYSEDPLLSGIMASAMTLGVQKVPGCGTTIKHFACNNQEDNRMGSDSVLSERALREIYLKGFEIAVKNSQPMSIMTSYNMINGVHAANCYDICTRAARDEWEFAGAVMTDWTTTFASPRGECTAAGCMRAGNDMVMPGIPKDHENIRRELEEGTLDIRELKRCICNTVNLILQSNRYENAVSYLEQFEGLDAYLSVERSN
Work on B1 yielded a Km [1] of 0.23 ± 0.05 mM, a kcat [1] of 12 ± 0.2 s⁻¹ and a kcat/Km [1] of 52 s⁻¹ mM⁻¹. For the same protein, the kcat [2] was 17 ± 0.3 s⁻¹, the kcat/Km [2] was 71 s⁻¹ mM⁻¹ and the Km [3] was 0.3 ± 0.04 mM. The kcat [3] was 20 ± 0.3 s⁻¹ and the kcat/Km [3] was 67 s⁻¹ mM⁻¹.

B2: BpGH94MLG (Blautia producta) (protein)
chain: MKYGYFDEEKKEYVITRPDTPAPWVNYLGSPEYGAIISNNAGGYSFEKSGANGRILRYVFNNFDQPGRYIYIRDQENKDFWSASWQPVGKPQDVYQCECRHGTAYTNMRAEYSEISSEVLYYVPLGAAYEVWRLRLTNNSDRPRNLCVTGYAEFTNNSNYEQDQVNLQYSQFITQTAFRGNRICQMIHANLDQLEPGKDVDDKQVTERFFGLAGNPVTSWCGDKDGFLGRYHGYDAPKGVIEGKLSCLPNYNGNGCGALSSDFVLKPGEAKEVVFVLGMKKDAEVEEILKRYEIPETVCREEFHKLVKYWHGYLSHFQVKTPSREFNTMVNTWNAYNCFMTFIWSRAASFIYCGLRNGYGYRDTVQDIQGIIHLAPDMALEKIRFMLSAQADNGGGLPLVKFTHNPGHEDTPDDASYVKETGHPAYRADDALWLFPTVYKYIAETGNMDFIDEVIPFANRGKATVYEHLKRAVKFSMDHLGRHGMPAGLYADWNDCLRLGKDGESTFVAMQFYYAMTILKKFAKYKKDVEYMEFLCERQKKLEELIQKFCWDEGRFIRGFTENGEIIGKSTDPEANMWLNPQSWAVISGVANEEQADRVLDVVEKRLNTEYGLVLMDPPYHAHAFDGALAVIYNPGTKENAGIFSQSQGWIILAEALRGHGERAFTYFMENAPAAQNDRADIRKLEPYCYGQFTEGKDSPNFGRSHVHWLTGTASTIMVGCVEGILGIRPDFYGIRLAPAIPKEWEEYEVEKDFRGCHLHIKVKNPGHVESGCEKLVVNGNVVTGSYIPADLLTEQTDIELFIS
B2 showed a Km [4] of 0.052 ± 0.005 mM, a kcat [4] of 1.86 ± 0.022 s⁻¹ and a kcat/Km [4] of 35700 M⁻¹ s⁻¹. For the same protein, the Km [5] was 0.028 ± 0.004 mM, the kcat [5] was 0.67 ± 0.021 s⁻¹ and the kcat/Km [5] was 23900 M⁻¹ s⁻¹. The Km [6] was 0.021 ± 0.002 mM, the kcat [6] was 1.21 ± 0.014 s⁻¹ and the kcat/Km [6] was 57600 M⁻¹ s⁻¹.

B3: BpGH3-X62MLG (Blautia producta ATCC 27340 = DSM 2950) (protein)
chain: MENKYVIDWDKYAALARRAAAEGAVLLKNDNQALPLKKETISVFGRIQYHYYKSGTGSGGLVNAKYVIGIMDALQEEKDLTLDEELAAVYRSWIMEHPFDQGSGWAQEPWSQEEMPLDEKMVEEAAARSDTAVIVIGRTAGEDRDASAEKGSYLLTDLEEDMLEKVCRLFKKSIVVLNVGNIIDMKWVEKYNPSAVLYTWQGGQEGGHSAADVLTGRVNPCGKLADTIARDISDYPSTENFGGGDFDIYAEDIYVGYRYFETFARDKVLYPFGFGLSYTSFRTECGPIKRLDGETSVCVKVTNAGSCAGKEVVQMYVEPPQGKLGKPSRNLAAFAKTKCLQPGESQELVLKVTDYYISSYDDSGAAGFKSCYVLENGSYGIYVGTDVRGAEAAGSFYIPETIATSVCTEAAGPVRQFKRMRAKEGGALAWEEAPLRTHKMQERIHKEILPDITYTGNKGFTLGEVFDRDISLNEFLAQLSEEDLCCIVRGEGMCSPKVTPGTAAAFGGVTESLQKLGIPCGCCADGPSGIRMDCGTPAFSMPNGTCLACTFDTELSEELYEMEGAELRKNRIDTLLGPGINIHRNPLNGRNFEYFSEDPYLTGIMASAQLKGMARFGVTGTIKHFAANNQEYHRRLLDSVMSERALREIYLRGFEIAVKEGKAYSIMTTYGAINGLWTASNYDLLTTILRKEWGFEGMVMTDWWADLNDEGGQPSTDNLAAMVRSQNDVYMVTQDSLNNKDNLMESLKNGTLKRGALLRCAGNICRMLMRSPVMERTLGRMSEEEKKAGEVMAGEDKVDFDITYHKVQGSLVLDGTKIDTSKGNSVVYGILLDTFGSYKVRLKVKADSGELAQIPVSVFANGHLEGTVTINGTKGEWIEIEKTIGPLFGPHNYVRLYFAQSGMQIQTVTIELQEKMDRGF
Protein B3 has a Km [7] of 0.2 ± 0.03 mM, a kcat [7] of 8 ± 0.01 s⁻¹ and a kcat/Km [7] of 38 s⁻¹ mM⁻¹. For the same protein, the kcat [8] was 12 ± 0.2 s⁻¹, the kcat/Km [8] was 51 s⁻¹ mM⁻¹ and the kcat [9] was 12 ± 0.2 s⁻¹. It also gave a kcat/Km [9] of 48 s⁻¹ mM⁻¹, a Km [10] of 0.23 ± 0.04 mM and a kcat [10] of 17 ± 0.3 s⁻¹. For the same protein, the kcat/Km [10] was 73 s⁻¹ mM⁻¹, the Km [11] was 0.26 ± 0.03 mM and the kcat [11] was 15 ± 0.2 s⁻¹. The kcat/Km [11] was 59 s⁻¹ mM⁻¹, the Km [12] was 0.25 ± 0.05 mM and the Km [13] was 0.45 ± 0.06 mM. The kcat [13] was 19 ± 0.3 s⁻¹ and the kcat/Km [13] was 43 s⁻¹ mM⁻¹.
